The target of experiment [1] is Fibrinogen-D fragment (human, plasmin digest) (human) (UniProt P02671). Kind of experiment: ITC (VP-ITC), peptide titrated into 10 µM Fg-D, one-site model, 27°C.
Experiment [2] concerns the target human fibrinogen (human) (UniProt P02671). Briefly: ELISA, GST-tagged Coa fragment on immobilized Fg.
Experiment [3] shares this target. Briefly: apparent KD, solid phase binding assay, Efb coated 1 µg/well, Fg titrated 0-0.3 µM.
Experiment [4] shares this target. Kind of experiment: apparent KD, solid phase binding assay, DC2-Fg coated 1 µg/well, Fg titrated 0-0.3 µM.
Experiment [5] shares this target. Kind of experiment: apparent affinity, ELISA, GST-tagged Coa fragment on immobilized Fg.
Experiment [6] has as its target T1, rEfb-O (Efb 68-98), GST-tagged recombinant protein (Staphylococcus aureus strain Newman).
T1 construct: also called Efb-O68-98; not shown: N-terminal GST tag from pGEX-5x-1
T1 chain: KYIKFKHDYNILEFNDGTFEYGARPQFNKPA
Kind of experiment: apparent Kd from half maximum binding in ELISA.

The target of experiment [7] is Efb-A30-67, GST-tagged recombinant protein (Staphylococcus aureus strain Newman, UniProt P08515 1-218 = GST; A6QG59 30-67). Briefly: apparent Kd from half maximum binding in ELISA.
The target in experiment [8] is T2, Efb-N30-105, His-tagged recombinant protein (Staphylococcus aureus strain Newman, UniProt A6QG59 30-105).
T2 construct: range 30-105; not shown: polyhistidine tag (detected with anti-HIS-tag antibody)
T2 sequence (looked up): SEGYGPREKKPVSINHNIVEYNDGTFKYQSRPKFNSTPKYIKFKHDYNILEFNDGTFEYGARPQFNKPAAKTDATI
Briefly: apparent Kd from half maximum binding in ELISA.

In experiment [9] the target is T3, Fibrinogen-D fragment (human, plasmin digest) (human, UniProt P02671 124-225; P02675 164-491; P02679 89-437).
T3 construct: domain: D fragment; Made by digesting human Fg with plasmin for 4 h and gel filtration; also called Fg-D; Fg-D fragment
T3 sequence 1: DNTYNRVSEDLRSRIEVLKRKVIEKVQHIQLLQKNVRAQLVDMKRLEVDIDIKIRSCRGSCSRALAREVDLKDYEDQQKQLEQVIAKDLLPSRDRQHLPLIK
T3 sequence 2: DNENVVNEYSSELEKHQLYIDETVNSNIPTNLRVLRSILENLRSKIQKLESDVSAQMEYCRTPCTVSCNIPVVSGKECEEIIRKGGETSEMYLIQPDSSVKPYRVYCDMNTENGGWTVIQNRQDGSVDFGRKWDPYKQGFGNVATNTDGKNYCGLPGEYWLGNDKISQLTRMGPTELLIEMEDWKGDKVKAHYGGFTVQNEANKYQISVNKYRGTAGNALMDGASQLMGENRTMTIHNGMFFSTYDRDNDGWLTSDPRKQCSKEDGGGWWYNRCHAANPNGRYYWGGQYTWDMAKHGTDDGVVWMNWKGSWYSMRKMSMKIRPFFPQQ
T3 sequence 3: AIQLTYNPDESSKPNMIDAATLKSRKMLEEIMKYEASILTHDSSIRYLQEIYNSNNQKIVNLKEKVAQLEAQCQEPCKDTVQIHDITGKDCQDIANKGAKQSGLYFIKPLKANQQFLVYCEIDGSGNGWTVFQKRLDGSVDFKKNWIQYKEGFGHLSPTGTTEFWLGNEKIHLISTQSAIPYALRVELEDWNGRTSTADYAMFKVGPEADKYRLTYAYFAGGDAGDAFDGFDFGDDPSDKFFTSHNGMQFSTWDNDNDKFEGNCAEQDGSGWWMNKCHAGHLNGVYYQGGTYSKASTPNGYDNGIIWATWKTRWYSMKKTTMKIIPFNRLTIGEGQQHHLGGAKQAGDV
Kind of experiment: ITC (VP-ITC), peptide titrated into 10 µM Fg-D, one-site model, 27°C.

In EP3922644A2 (The Texas A&M University System, dated 2021) one finds Kd and EC50 data, which are given here for eight molecules.

sCoa-RV1, synthetic peptide Coa 610-636 yielded a Kd in [1] of 139 nM.
In the case of “Coa-C (Coa 311-636), GST-tagged (from UniProt P08515 1-218)”, the EC50 in [2] came to 7.5 nM.
In the case of “Efb as coated in the solid phase binding assay of the DC proteins (from UniProt A6QG59 30-165)”, the Kd in experiment [3] worked out at 1 nM.
As to “DC2-Fg, DC2 with the fibrinogen binding motif Efb-O inserted after Gln 301 (designed binder)”, the Kd in experiment [4] stood at 10 nM.
For the molecule sCoa-RI3, synthetic peptide Coa 502-528, the Kd in experiment [1] was determined as 124 nM.
Consider “Coa-R (Coa 506-636), GST-tagged (from UniProt P08515 1-218)”, for which, in experiment [5], the Kd stood at 0.8 nM.

B1: FBE5-F11 (Fc fusion)
VH: QVQLQESGGGVVQPGRSLRLSCAASGFTFSSYGMHWVRQAPGKGLEWVAVISYDGSNKYYADSVKGRFTISRDNSKNTLYLQMNSLRAEDTAVYYCAKDLASSGFDYWGQGTLVTVSS
VL: QSVLTQPPSVSAAPGQKVTISCSGSSSNIGNNYVSWYQQLPGTAPKLLIYDNNKRPSGIPDRFSGSKSGTSATLGITGLQTGDEADYYCGTWDSSLSAEVFGGGTKLTVL
notes: Tested as scFv-Fc (human scFv from HAL9/HAL10 recloned into pCSE2.6-hIgG1-Fc-XP, made in HEK293-6E)
For B1, the Kd in experiment [6], in experiment [7] and in experiment [8] was about 0.1 nM in each case.

B2: sCoa-RI, synthetic peptide Coa 506-532 (peptide)
peptide: ETNAYNVTTHANGQVSYGARPTYKKPS
notes: also called peptide CoaRI
Molecule B2 registered a Kd in experiment [9] of 88 nM.
